Results taken from the supplement of paper PMC9112550, “Optimization of the antimicrobial peptide Bac7 by deep mutational scanning” (BMC Biology, 2022).

Test system: Escherichia coli TOP10
Experiment: shrunken log2 fold change of peptide-encoding DNA abundance (4.5 h post-induction vs induction); higher = less antimicrobial activity (less host growth inhibition)
Conditions: time post-induction: 4.5 h; library: site-saturation at positions 5, 18, 19, 20
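Also: peptides expressed intracellularly from a pBAD plasmid library in pooled LB shake-flask culture, induced with 0.3% L-arabinose, DNA abundance read by NGS, three biological replicates, DESeq2 with apeglm shrinkage.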

| Sequence | shrunken log2 fold change |
| --- | --- |
| RRIRDRPPRLPRPRPRPNYFPRP | -0.0536 |
| RRIRDRPPRLPRPRPRPRSDPRP | 0.514 |
| RRIRERPPRLPRPRPRPHTWPRP | -0.33 |
| RRIRVRPPRLPRPRPRPHIQPRP | -0.528 |
| RRIRIRPPRLPRPRPRPGYWPRP | -0.0497 |
| RRIRDRPPRLPRPRPRPAYQPRP | -0.381 |
| RRIRARPPRLPRPRPRPMIDPRP | 0.535 |
| RRIRDRPPRLPRPRPRPDYKPRP | 0.00454 |
| RRIRERPPRLPRPRPRPCEEPRP | -0.125 |
| RRIRYRPPRLPRPRPRPHLCPRP | -0.0639 |
| RRIRHRPPRLPRPRPRPTTPPRP | 0.0328 |
| RRIRGRPPRLPRPRPRPSNSPRP | -0.203 |
| RRIRARPPRLPRPRPRPVQWPRP | 0.546 |
| RRIRKRPPRLPRPRPRPLKNPRP | 0.211 |
| RRIRWRPPRLPRPRPRPNHEPRP | -0.197 |
| RRIRRRPPRLPRPRPRPWKFPRP | -0.0344 |
| RRIRWRPPRLPRPRPRPNSNPRP | -0.583 |
| RRIRHRPPRLPRPRPRPCYRPRP | -0.121 |
| RRIRNRPPRLPRPRPRPIGVPRP | 0.249 |
| RRIRGRPPRLPRPRPRPCAIPRP | 2.08 |
| RRIRGRPPRLPRPRPRPPPLPRP | 1.16 |
| RRIRMRPPRLPRPRPRPDIFPRP | 0.118 |
| RRIRCRPPRLPRPRPRPAKHPRP | -0.23 |
| RRIRHRPPRLPRPRPRPAFAPRP | 0.278 |
| RRIRERPPRLPRPRPRPYKYPRP | 0.686 |

| Sequence | shrunken log2 fold change |
| --- | --- |
| RRIRIRPPRLPRPRPRPHFVPRP | -0.565 |
| RRIRTRPPRLPRPRPRPMKHPRP | -0.00108 |
| RRIRRRPPRLPRPRPRPPENPRP | 0.615 |
| RRIRCRPPRLPRPRPRPSLQPRP | -0.455 |
| RRIRFRPPRLPRPRPRPWNNPRP | -0.0242 |
| RRIRPRPPRLPRPRPRPCVSPRP | -0.0858 |
| RRIRPRPPRLPRPRPRPICQPRP | -0.0543 |
| RRIRKRPPRLPRPRPRPGNFPRP | -0.373 |
| RRIRWRPPRLPRPRPRPEYQPRP | 0.0269 |
| RRIRSRPPRLPRPRPRPFYYPRP | -0.615 |
| RRIRRRPPRLPRPRPRPTGAPRP | 0.633 |
| RRIRPRPPRLPRPRPRPGANPRP | 0.364 |
| RRIRVRPPRLPRPRPRPIVTPRP | -0.214 |
| RRIRYRPPRLPRPRPRPFKDPRP | -0.0864 |
| RRIRDRPPRLPRPRPRPYLTPRP | -0.0558 |
| RRIRVRPPRLPRPRPRPYRAPRP | -0.201 |
| RRIRCRPPRLPRPRPRPTWGPRP | 0.301 |
| RRIRDRPPRLPRPRPRPYHSPRP | -0.198 |
| RRIRCRPPRLPRPRPRPWQEPRP | -0.153 |
| RRIRNRPPRLPRPRPRPCLSPRP | -0.043 |
| RRIRLRPPRLPRPRPRPIRWPRP | -0.241 |
| RRIRRRPPRLPRPRPRPCWPPRP | 0.0865 |
| RRIRERPPRLPRPRPRPWFTPRP | -0.187 |
| RRIRNRPPRLPRPRPRPGTFPRP | -0.281 |
| RRIRIRPPRLPRPRPRPCWPPRP | -0.232 |

| Sequence | shrunken log2 fold change |
| --- | --- |
| RRIRRRPPRLPRPRPRPDAYPRP | 0.249 |
| RRIRWRPPRLPRPRPRPCAEPRP | 0.618 |
| RRIRGRPPRLPRPRPRPPPEPRP | 2.01 |
| RRIRARPPRLPRPRPRPFPMPRP | 0.335 |
| RRIRFRPPRLPRPRPRPRIEPRP | -0.0896 |
| RRIRERPPRLPRPRPRPPHGPRP | 0.19 |
| RRIRGRPPRLPRPRPRPNMLPRP | 0.374 |
| RRIRWRPPRLPRPRPRPIYRPRP | 0.0155 |
| RRIRDRPPRLPRPRPRPAGRPRP | 0.632 |
| RRIRSRPPRLPRPRPRPRMFPRP | -0.121 |
| RRIRTRPPRLPRPRPRPDKMPRP | -0.392 |
| RRIRCRPPRLPRPRPRPNEPPRP | 0.0197 |
| RRIRPRPPRLPRPRPRPKFQPRP | 0.103 |
| RRIRVRPPRLPRPRPRPYKHPRP | -0.81 |
| RRIRWRPPRLPRPRPRPTDHPRP | -0.307 |
| RRIRKRPPRLPRPRPRPNIPPRP | -0.237 |
| RRIRVRPPRLPRPRPRPVSYPRP | -0.51 |
| RRIRIRPPRLPRPRPRPMFIPRP | -0.454 |
| RRIRCRPPRLPRPRPRPMHQPRP | -0.0626 |
| RRIRRRPPRLPRPRPRPGDHPRP | 0.0619 |
| RRIRERPPRLPRPRPRPCVAPRP | 0.258 |
| RRIRIRPPRLPRPRPRPPMSPRP | -0.288 |
| RRIRNRPPRLPRPRPRPWHGPRP | -0.153 |
| RRIRARPPRLPRPRPRPWSLPRP | -0.181 |
| RRIRSRPPRLPRPRPRPGARPRP | 0.492 |

| Sequence | shrunken log2 fold change |
| --- | --- |
| RRIRNRPPRLPRPRPRPWCYPRP | -0.428 |
| RRIRKRPPRLPRPRPRPNNAPRP | 0.243 |
| RRIRTRPPRLPRPRPRPINNPRP | -0.793 |
| RRIRRRPPRLPRPRPRPPKMPRP | 0.286 |
| RRIRQRPPRLPRPRPRPLPPPRP | 1.09 |
| RRIRQRPPRLPRPRPRPAKSPRP | -0.0281 |
| RRIRVRPPRLPRPRPRPVQQPRP | -0.246 |
| RRIRSRPPRLPRPRPRPWNNPRP | -0.627 |
| RRIRNRPPRLPRPRPRPWYEPRP | -0.0232 |
| RRIRSRPPRLPRPRPRPNEPPRP | -0.0883 |
| RRIRMRPPRLPRPRPRPCTNPRP | 0.0685 |
| RRIRLRPPRLPRPRPRPFTQPRP | -0.337 |
| RRIRSRPPRLPRPRPRPLRRPRP | 0.404 |
| RRIRHRPPRLPRPRPRPPIWPRP | 0.324 |
| RRIRERPPRLPRPRPRPEHQPRP | 0.0588 |
| RRIRWRPPRLPRPRPRPVWTPRP | 0.162 |
| RRIRERPPRLPRPRPRPESMPRP | -0.46 |
| RRIRNRPPRLPRPRPRPVKCPRP | 0.0182 |
| RRIRGRPPRLPRPRPRPVNLPRP | -0.152 |
| RRIRARPPRLPRPRPRPKHNPRP | 0.114 |
| RRIRSRPPRLPRPRPRPQAMPRP | 0.182 |
| RRIRWRPPRLPRPRPRPNENPRP | -0.0342 |
| RRIRSRPPRLPRPRPRPRWMPRP | -0.206 |
| RRIRSRPPRLPRPRPRPIIPPRP | -0.188 |
| RRIRGRPPRLPRPRPRPPMRPRP | 1.39 |

| Sequence | shrunken log2 fold change |
| --- | --- |
| RRIRWRPPRLPRPRPRPMISPRP | 0.248 |
| RRIRCRPPRLPRPRPRPEFLPRP | -0.091 |
| RRIRVRPPRLPRPRPRPVMIPRP | -0.183 |
| RRIRNRPPRLPRPRPRPGEFPRP | -0.00204 |
| RRIRKRPPRLPRPRPRPGIDPRP | 0.792 |
| RRIRCRPPRLPRPRPRPFMRPRP | 0.0501 |
| RRIRVRPPRLPRPRPRPQCFPRP | 0.00325 |
| RRIRSRPPRLPRPRPRPGVYPRP | -0.0749 |
| RRIRRRPPRLPRPRPRPFDSPRP | -0.21 |
| RRIRMRPPRLPRPRPRPDGWPRP | 1.48 |
| RRIRFRPPRLPRPRPRPIQAPRP | 0.00328 |
| RRIRNRPPRLPRPRPRPEVDPRP | 0.478 |
| RRIRRRPPRLPRPRPRPFLQPRP | 0.117 |
| RRIRLRPPRLPRPRPRPNEIPRP | 0.0349 |
| RRIRLRPPRLPRPRPRPQMPPRP | -0.417 |
| RRIRLRPPRLPRPRPRPMDWPRP | -0.0759 |
| RRIRERPPRLPRPRPRPIHEPRP | 0.0218 |
| RRIRWRPPRLPRPRPRPWKMPRP | -0.0467 |
| RRIRSRPPRLPRPRPRPIRNPRP | -0.379 |
| RRIRWRPPRLPRPRPRPGNIPRP | -0.472 |
| RRIRRRPPRLPRPRPRPDEEPRP | 0.526 |
| RRIRPRPPRLPRPRPRPHMAPRP | -0.276 |
| RRIRPRPPRLPRPRPRPPINPRP | -0.158 |
| RRIRMRPPRLPRPRPRPWVQPRP | 0.015 |
| RRIRCRPPRLPRPRPRPHAQPRP | 0.0778 |
